The experiment concerns the target T1, adenosine A1 receptor fused to Renilla luciferase (A1R-Rluc) (UniProt P30542 1-326).
T1 sequence (looked up): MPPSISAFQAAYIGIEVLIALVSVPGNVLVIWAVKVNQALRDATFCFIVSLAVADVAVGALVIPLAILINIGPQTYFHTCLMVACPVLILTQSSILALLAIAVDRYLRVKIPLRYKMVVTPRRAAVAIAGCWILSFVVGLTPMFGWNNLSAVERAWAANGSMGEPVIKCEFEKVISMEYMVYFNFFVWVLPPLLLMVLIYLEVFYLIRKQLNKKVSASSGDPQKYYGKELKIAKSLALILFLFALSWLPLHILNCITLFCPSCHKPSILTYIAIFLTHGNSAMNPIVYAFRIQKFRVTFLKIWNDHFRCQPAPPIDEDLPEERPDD
Briefly: FRET or BRET. Background: In BRET a luciferase serves as donor, and the signal depends on an acceptor being close.

B1: dopamine D1 receptor fused to YFP (D1R-YFP) (receptor, UniProt P21728 1-446, looked up)
chain: MRTLNTSAMDGTGLVVERDFSVRILTACFLSLLILSTLLGNTLVCAAVIRFRHLRSKVTNFFVISLAVSDLLVAVLVMPWKAVAEIAGFWPFGSFCNIWVAFDIMCSTASILNLCVISVDRYWAISSPFRYERKMTPKAAFILISVAWTLSVLISFIPVQLSWHKAKPTSPSDGNATSLAETIDNCDSSLSRTYAISSSVISFYIPVAIMIVTYTRIYRIAQKQIRRIAALERAAVHAKNCQTTTGNGKPVECSQPESSFKMSFKRETKVLKTLSVIMGVFVCCWLPFFILNCILPFCGSGETQPFCIDSNTFDVFVWFGWANSSLNPIIYAFNADFRKAFSTLLGCYRLCPATNNAIETVSINNNGAAMFSSHHEPRGSISKECNLVYLIPHAVGSSEDLKKEEAAGIARPLEKLSPALSVILDYDTDVSLEKIQPITQNGQHPT
Molecule B1 had a BRET50 of 2 ± 1 YFP/Rluc ratio.

For the origin of these results see paper PMC6252157 (Molecular neurobiology, 2018).
